{
  "source": "paper doi:10.1101/2020.06.10.144725",
  "about": "(bioRxiv, 2020)",
  "molecules": {"B1": {"name": "RFP-NKD1-EF (domain or fragment)", "chain": "EPCPGSKKQLKFEELQCDVSMEEDSRQEWTFTLYDFDNNGKVTREDITSLLHTIYEVVDSSVNHSPTSSKMLRVKLTVAPD"}},
  "key": {"[1]": {"biological_target": "Lip-NKD-HisC (lipoyl domain-tagged HisC of NKD1) (human (identical sequence in mouse and human)) (UniProt Q969G9)", "sequence (Q969G9 whole entry, the tested form may be a part)": "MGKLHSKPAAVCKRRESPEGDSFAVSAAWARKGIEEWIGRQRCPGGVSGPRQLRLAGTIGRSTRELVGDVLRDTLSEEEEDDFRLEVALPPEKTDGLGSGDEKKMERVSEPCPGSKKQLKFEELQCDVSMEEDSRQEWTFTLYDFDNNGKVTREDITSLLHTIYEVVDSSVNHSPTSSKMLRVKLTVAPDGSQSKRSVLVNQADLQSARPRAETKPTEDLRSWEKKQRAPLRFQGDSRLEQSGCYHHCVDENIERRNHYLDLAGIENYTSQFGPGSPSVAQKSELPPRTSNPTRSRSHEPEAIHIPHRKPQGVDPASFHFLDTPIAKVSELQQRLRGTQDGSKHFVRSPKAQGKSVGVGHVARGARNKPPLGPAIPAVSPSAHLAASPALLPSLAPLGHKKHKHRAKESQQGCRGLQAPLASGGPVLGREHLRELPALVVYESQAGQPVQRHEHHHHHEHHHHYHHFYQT", "assay": "co-aggregation assay"}, "[2]": {"biological_target": "Lip-NKD-HisC (lipoyl domain-tagged HisC of NKD1) (human (identical sequence in mouse and human)) (UniProt Q969G9)", "assay": "SEC"}, "Lip-DVL2-PDZ": {"biological_target": "T1, Lip-DVL2-PDZ (human, UniProt O14641 285-373)", "T1 sequence": "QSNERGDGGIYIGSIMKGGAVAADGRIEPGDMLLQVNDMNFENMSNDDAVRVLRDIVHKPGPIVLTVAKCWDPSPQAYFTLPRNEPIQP", "assay": "ITC"}, "SEC-MALS": {"biological_target": "the molecule itself", "assay": "SEC-MALS"}},
  "data": [
    {"molecule": "MBP-Axin2-HisC (domain or fragment)", "values": [
      {"measurement": "molecules per core (molecules per core)", "setting": "[1]", "value": "< 4"}
    ]},
    {"molecule": "Lip-NKD-HisC (lipoyl domain-tagged HisC of NKD1) (from UniProt Q969G9 1-470) (domain or fragment)", "values": [
      {"measurement": "stoichiometry N", "setting": "[2]", "value": "15 to 25"}
    ]},
    {"molecule": "MBP-Axin1-HisC (from UniProt O15169 1-862) (domain or fragment)", "values": [
      {"measurement": "molecules per core (molecules per core)", "setting": "[1]", "value": "< 5"}
    ]},
    {"molecule": "MBP-NKD-HisC (maltose-binding protein-tagged HisC of NKD1) (from UniProt Q969G9 1-470) (domain or fragment)", "values": [
      {"measurement": "stoichiometry N", "setting": "[1]", "value": 10}
    ]},
    {"molecule": "B1", "values": [
      {"measurement": "Kd", "setting": "Lip-DVL2-PDZ", "value": "3.2 ± 0.2", "unit": "µM"},
      {"measurement": "stoichiometry N", "setting": "SEC-MALS", "value": 2}
    ]}
  ]
}
